Experimental data: patent US20170008955A1 (CNJ, published 2017)

Tests used:
[1] = target: T1, cSNK:BSA conjugate (bovine, head-to-tail cyclized; conjugated to BSA carrier); assay: BLI (Octet), KD2; unlabelled reference row, taken as hu5E3
T1 construct: also called BSA-cSNK

[2] = target: T2, Aβ42 oligomers (UniProt P05067 672-713); assay: Biacore (SPR), Aβ oligomer preparation AβO1 (HQ AβO1); lower end of the range
T2 construct: domain: Aβ42; immobilized preparation containing monomers, low and high molecular weight oligomers; also called Amyloid beta oligomers; Aβ oligomers
Experimental: (§1) Using a Biacore™ 3000, Aβ42 oligomers were immobilized (containing monomers, low and high molecular weight oligomers) and BSA (reference surface) on 4 separate flow cells of a biosensorchip. Murine 5E3 or humanized 5E3 IgG1, IgG2, and IgG4 were then diluted, sequentially injected over the different immobilized peptides and antibody binding monitored in real time. Binding data was collected by sequentially injecting buffer blanks, 1/10 dilutions of m5E3 or 1 uM dilutions of hu5E3 control over separate flow cells immobilized with BSA or Aβ42 oligomer on another biosensor chip at a flow rate of 10 μl/minute. Association was allowed for 200 seconds, followed by dissociation for 500 seconds and binding responses collected 10 seconds before the end of the […]. All binding responses were double-referenced by subtracting buffer blanks and BSA reference surface binding.
(§2) Results: As shown in FIG. 9A and FIG. 9B, the humanized 5E3 isotypes bound to the Aβ42 oligomer preparation. Affinity constants were determined for hu5E3 IgG1 Aβ42 oligomer preparations.

[3] = target: T2, Aβ42 oligomers; assay: Biacore (SPR), Aβ oligomer preparation AβO1' (HQ AβO1'); lower end of the range
Experimental: as §1, §2

[4] = target: T1, cSNK:BSA conjugate; assay: BLI (Octet), KD1; unlabelled reference row, taken as hu5E3; unlabelled reference row at the top of the table
[5] = target: T1, cSNK:BSA conjugate; assay: BLI 2:1 fit, site 1 (KD1); 50 nM row
Experimental: (§3) Biolayer interferometry (Octet […], ForteBio) was used to qualitatively/quantitatively assess the interactions between humanized versions of 5E3 and cSNK:BSA conjugate. […] MAbs were loaded onto sensors and then washed in PBST. Each sensor was associated with one of several cSNK:BSA standards (100 nM to 0 nM) and then washed in PBST. Data was processed statistically using ForteBio Data Analysis software to determine the strength of antigen-antibody binding (KD). For each mAb analyzed, a 2:1 model provided the “best fit”.

[6] = target: T1, cSNK:BSA conjugate; assay: BLI 2:1 fit, site 1 (KD1); 12.5 nM row
Experimental: as §3

T1 sequence (P02769 25-607 limits assumed): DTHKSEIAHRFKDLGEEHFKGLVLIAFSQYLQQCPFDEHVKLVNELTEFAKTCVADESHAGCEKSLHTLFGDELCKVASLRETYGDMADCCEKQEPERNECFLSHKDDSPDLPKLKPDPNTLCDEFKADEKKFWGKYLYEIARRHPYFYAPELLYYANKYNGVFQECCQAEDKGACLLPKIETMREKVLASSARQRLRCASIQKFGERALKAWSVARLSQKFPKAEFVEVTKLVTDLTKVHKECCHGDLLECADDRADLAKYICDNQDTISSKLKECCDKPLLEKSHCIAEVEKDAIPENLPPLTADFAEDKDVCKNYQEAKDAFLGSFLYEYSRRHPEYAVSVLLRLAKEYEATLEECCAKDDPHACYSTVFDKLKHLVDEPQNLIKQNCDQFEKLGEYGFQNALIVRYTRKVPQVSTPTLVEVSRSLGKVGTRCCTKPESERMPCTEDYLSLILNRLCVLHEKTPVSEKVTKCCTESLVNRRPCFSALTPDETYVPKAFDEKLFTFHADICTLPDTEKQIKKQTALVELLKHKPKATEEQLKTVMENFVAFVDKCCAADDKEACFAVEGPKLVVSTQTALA
T2 sequence (P05067 672-713 limits assumed): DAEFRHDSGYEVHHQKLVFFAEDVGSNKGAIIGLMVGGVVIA

| Binder | Kd [1] | Kd [2] | Kd [3] | Kd [4] | Kd [5] | Kd [6] |
| --- | --- | --- | --- | --- | --- | --- |
| hu5E3-IgG1 (antibody, V domains shown, human IgG1/kappa; also called humanized 5E3 IgG1; IHA variant) VH: QVQLQQSGPEVKKPGASVKISCKASGYIFTSYYIQWVIHAPGQGLEWIGWIYPGNVNTKYNEKFKGKATLTADKSSSTAYMELSSLTSEDTAVYFCARMDYEAHYWGQGTTVTVSS VL: DIQMTQSPSSLSASVGDRVTITCRASQEISGYLTWLQQKPEGAIKRLIYAASTLDSGVPKRFSGSRSGSDYSLTISSLQPEDFATYNCLQYANYPRTFGGGTKLEIK | 15.1 nM | ≥ 182000 nM | ≥ 34000 nM | 6.27 nM | – | – |
| rehu5E3-IgG4 (antibody, V domains shown, human IgG4/kappa; also called IgG4 rehu version) VH: QVQLQQSGPEVVKPGASVKISCKASGYIFTSYYIQWVIHAPGQGLEWIGWIYPGNVNTKYNEKFKGKATLTADKSSSTAYMELSSLRSEDSAVYFCARMDYEAHYWGQGTLVTVSS VL: DIQMTQSPSSLSASLGDRVTLTCRASQEISGYLTWLQQKPEKAIKRLIYAASTLDSGVPKRFSGSRSGSDYTLTISSLQPEDFADYNCLQYANYPRTFGGGTKLEIK | – | – | – | – | 0.557 nM | 0.557 nM |
